# Experimental data taken from PMC9259969, “Biophysical Screening Pipeline for Cryo-EM Grid Preparation of Membrane Proteins” (Frontiers in Molecular Biosciences, 2022).
# B1: TolC (natural protein, Escherichia coli, UniProt P02930 23-493, looked up)
# chain: ENLMQVYQQARLSNPELRKSAADRDAAFEKINEARSPLLPQLGLGADYTYSNGYRDANGINSNATSASLQLTQSIFDMSKWRALTLQEKAAGIQDVTYQTDQQTLILNTATAYFNVLNAIDVLSYTQAQKEAIYRQLDQTTQRFNVGLVAITDVQNARAQYDTVLANEVTARNNLDNAVEQLRQITGNYYPELAALNVENFKTDKPQPVNALLKEAEKRNLSLLQARLSQDLAREQIRQAQDGHLPTLDLTASTGISDTSYSGSKTRGAAGTQYDDSNMGQNKVGLSFSLPIYQGGMVNSQVKQAQYNFVGASEQLESAHRSVVQTVRSSFNNINASISSINAYKQAVVSAQSSLDAMEAGYSVGTRTIVDVLDATTTLYNAKQELANARYNYLINQLNIKSALGTLNEQDLLALNNALSKPVSTNPENVAPQTPEQNAIADGYAPDSPAPVVQQTSARTTTSNGHNPFRN
# notes: TolC, outer membrane protein of Escherichia coli; molecular weight of 161.7 kDa printed for the trimeric state; The protomer is written here; In DDM micelles in the assays; also called integral membrane protein TolC; source: E. coli C43(DE3)ΔAcrAB, solubilised in DDM, purified (HiTrap HP with imidazole elution, SEC)
# B2: Recombinant human ENTH domain from epsin-1 (hENTH) (protein)
# chain: NIVHNYSEAEIKVREATSNDPWGPSSSLMSEIADLTYNVVAFSEIMSMIWKRLNDHGKNWRHVYKAMTLMEYLIKTGSERVSQQCKENMYAVQTLKDFQYVDRDGKDQGVNVREKAKQLVALLRDEDRLREER
# Experiments:
# [1] = molecular target: the molecule itself; assay: mass photometry; 150 nM TolC in the presence of 0.003% DDM; controls with 0.03% and 0.003% DDM without protein
# Q9Y6I3 = assay: mass photometry; hENTH at 100 nM in the presence of 200 µM PI(4,5)P2; Refeyn OneMP; control: buffer with 200 µM PI(4,5)P2; details: other: mass photometry
Protein,binding result [1],"N with PI(4,5)P2 (Q9Y6I3)"
B1,binds,–
B2,–,"corresponding to a hexamer of hENTH in the presence of 200 µM PI(4,5)P2"
